The values below come from patent US11786578B2, “Modified relaxin polypeptides and their uses” (AMBRX, INC., priority 2010, dated 2023).

A short description of this data set: PK of 20 kDa PEGylated relaxin polypeptides after a single subcutaneous injection in SD rats (Example 40). In kind it is in vivo, Sprague-Dawley (SD) rats. Conditions: for AUCinf / CL (mL/hr) / Cmax / MRT / Tmax / Vz / Terminal HL / Mean serum Conc.: 0.5 mg/kg SC; for AUCinf / CL (mL/hr) / Cmax / MRT / Tmax / Vz / Terminal HL: SD rats; for Terminal HL: non-compartmental; for Mean serum Conc.: male SD rats; for In vivo PK Term HL: 20K PEG. The text has this:
This example evaluates the pharmacokinetic properties of 20 kDa PEGylated relaxin polypeptides following a single subcutaneous injection in SD rats.
1st order elimination model and Gauss-Newton (Levenberg-Hartley) model fit equation. […] FIG. 8A-8/compares group mean serum concentration versus time for all PEG-Relaxin compounds dosed. All dose groups had measurable serum PEG-Relaxin levels.

Non-standard residues stand in square brackets, D forms with d. No end group written: not given here. Phe(4-Ac) = CC(=O)c1ccc(C[C@H](N)C(=O)O)cc1

For orientation: Cmax means the peak of the concentration-time curve. The term MRT denotes a mean duration of stay, worked out from the concentration-time curve. A word on the Tmax: it is the time at which the peak concentration occurs. Take “RLX-A-AA5-20KPEG-001: relaxin variant, B1 Ala, pAF at A chain position A5, 20K PEGylated (chain 1 QLYSXLANKCCHVGCTKRSLARFC; chain 2 ASWMEEVIKLCGRELVRAQIAICGMSTWS; not fully specified; non-natural residues)”: the “AUCinf” value worked out at 16095.9 ng·h/mL, the “CL (mL/hr)” value came out at 0.518 mL/min/kg, the peak concentration (Cmax) was found to be 438.0 ng/mL and the “MRT” value worked out at 29.4 h. Besides, the time to peak (Tmax) stood at 25.0 h, the “Vz” value turned out to be 0.5474 L/kg, the “Terminal HL” value worked out at 12.2 h and the “In vivo PK Term HL” value was 12.2 h. Moreover, the “Mean serum Conc.” value (1 hr) worked out at 19.9 ng/mL. Besides, the “Mean serum Conc.” value (2 hr) is 100.1 ng/mL. Also, for the setting “4 hr”, the “Mean serum Conc.” value was 185.0 ng/mL. The “Mean serum Conc.” value (8 hr) is given as 264.7 ng/mL. Besides, the “Mean serum Conc.” value (12 hr) was 434.3 ng/mL. Moreover, for the setting “25 hr”, the “Mean serum Conc.” value is 438.0 ng/mL. For the same substance, the “Mean serum Conc.” value (34 hr) is listed as 353.5 ng/mL. Also, for the setting “50 hr”, the “Mean serum Conc.” value is on record as 86.9 ng/mL. For the same substance, the “Mean serum Conc.” value (58 hr) turned out to be 62.4 ng/mL. Moreover, the “Mean serum Conc.” value (73 hr) came out at 32.8 ng/mL. Also, the “Mean serum Conc.” value (80 hr) amounted to 22.1 ng/mL. In addition, under “pre-dose (PD)”, the “Mean serum Conc.” value is reported as “BQL”.
“RLX-A-AR18-20KPEG-001: relaxin variant, B1 Ala, pAF at A chain position R18, 20K PEGylated (chain 1 QLYSALANKCCHVGCTKXSLARFC; chain 2 ASWMEEVIKLCGRELVRAQIAICGMSTWS; not fully specified; non-natural residues)”: the “AUCinf” value came out at 12985.5 ng·h/mL, the “CL (mL/hr)” value is 0.64 mL/min/kg, the “Cmax” value was found to be 345.9 ng/mL and the “MRT” value was determined as 27.7 h. Also, the “Tmax” value was determined as 25.0 h, the “Vz” value amounted to 0.6947 L/kg, the “Terminal HL” value was 12.5 h and the “In vivo PK Term HL” value came to 12.5 h. Moreover, the “Mean serum Conc.” value (1 hr) stood at 33.9 ng/mL. For the setting “2 hr”, the “Mean serum Conc.” value is 109.7 ng/mL. Moreover, the “Mean serum Conc.” value (4 hr) came to 172.7 ng/mL. Moreover, for the setting “8 hr”, the “Mean serum Conc.” value is 270.5 ng/mL. Besides, the “Mean serum Conc.” value (12 hr) is on record as 332.5 ng/mL. Moreover, the “Mean serum Conc.” value (25 hr) stood at 398.6 ng/mL. Also, under “34 hr”, the “Mean serum Conc.” value amounted to 264.3 ng/mL. The “Mean serum Conc.” value (50 hr) was 76.7 ng/mL. Besides, under “58 hr”, the “Mean serum Conc.” value amounted to 61.8 ng/mL. The “Mean serum Conc.” value (73 hr) amounted to 25.0 ng/mL. Moreover, the “Mean serum Conc.” value (80 hr) worked out at 14.9 ng/mL. Besides, the “Mean serum Conc.” value (pre-dose (PD)) was “BQL”.
“RLX-A-AV13-20KPEG-001: relaxin variant, B1 Ala, pAF substituted for valine 13 in the A chain, 20K PEG attached (chain 1 QLYSALANKCCHXGCTKRSLARFC; chain 2 ASWMEEVIKLCGRELVRAQIAICGMSTWS; not fully specified; non-natural residues)”: the “AUCinf” value amounted to 32230.5 ng·h/mL, the “CL (mL/hr)” value came out at 0.258 mL/min/kg, the “Cmax” value came to 742.5 ng/mL and the “MRT” value worked out at 32.7 h. In addition, the time to peak (Tmax) turned out to be 25.0 h, the “Vz” value was found to be 0.3254 L/kg and the “Terminal HL” value came to 14.6 h. Moreover, the “Mean serum Conc.” value (1 hr) came to 44.9 ng/mL. The “Mean serum Conc.” value (2 hr) is given as 138.9 ng/mL. Where the note is “4 hr”, the “Mean serum Conc.” value is 345.7 ng/mL. The “Mean serum Conc.” value (8 hr) was determined as 533.6 ng/mL. Further, the “Mean serum Conc.” value (12 hr) is given as 630.1 ng/mL. Further, the “Mean serum Conc.” value (25 hr) stood at 742.5 ng/mL. Moreover, the “Mean serum Conc.” value (34 hr) was 540.7 ng/mL. In addition, the “Mean serum Conc.” value (50 hr) came to 320.9 ng/mL. The “Mean serum Conc.” value (58 hr) is given as 209.4 ng/mL. For the same substance, the “Mean serum Conc.” value (73 hr) came out at 75.0 ng/mL. For the same substance, the “Mean serum Conc.” value (80 hr) turned out to be 58.7 ng/mL. Besides, the “Mean serum Conc.” value (pre-dose (PD)) is “BQL”.
“RLX-A-BV7-20KPEG-001: relaxin variant, B1 Ala, pAF at B chain position V7, 20K PEGylated (chain 1 QLYSALANKCCHVGCTKRSLARFC; chain 2 ASWMEE[Phe(4-Ac)](PEG 20 kDa)IKLCGRELVRAQIAICGMSTWS; not fully specified (bridges); ends and bridges not checked)”: the “AUCinf” value was 17260.9 ng·h/mL, the “CL (mL/hr)” value came to 0.482 mL/min/kg, the “Cmax” value was 471.6 ng/mL and the “MRT” value came to 27.9 h. Moreover, the “Tmax” value was 12.0 h, the “Vz” value is 0.5469 L/kg, the “Terminal HL” value was 13.1 h and the “In vivo PK Term HL” value was found to be 13.1 h. In addition, where the note is “1 hr”, the “Mean serum Conc.” value was found to be 25.7 ng/mL. Where the note is “2 hr”, the “Mean serum Conc.” value was found to be 98.9 ng/mL. For the same substance, for the setting “4 hr”, the “Mean serum Conc.” value turned out to be 248.5 ng/mL. The “Mean serum Conc.” value (8 hr) is listed as 343.5 ng/mL. The “Mean serum Conc.” value (12 hr) came out at 457.3 ng/mL. In addition, the “Mean serum Conc.” value (25 hr) turned out to be 518.5 ng/mL. For the same substance, under “34 hr”, the “Mean serum Conc.” value is listed as 270.4 ng/mL. The “Mean serum Conc.” value (50 hr) amounted to 104.0 ng/mL. The “Mean serum Conc.” value (58 hr) was found to be 63.5 ng/mL. For the same substance, the “Mean serum Conc.” value (73 hr) was determined as 26.0 ng/mL. Also, for the setting “80 hr”, the “Mean serum Conc.” value is given as 22.6 ng/mL. For the same substance, the “Mean serum Conc.” value (pre-dose (PD)) is “BQL”.
On to “RLX-A-BW28-20KPEG-001: relaxin variant, B1 Ala, pAF at B chain position W28, 20K PEGylated (chain 1 QLYSALANKCCHVGCTKRSLARFC; chain 2 ASWMEEVIKLCGRELVRAQIAICGMST[Phe(4-Ac)](PEG 20 kDa)S; not fully specified (bridges); ends and bridges not checked)”, for which the “AUCinf” value is 22191.2 ng·h/mL, the “CL (mL/hr)” value came to 0.375 mL/min/kg, the “Cmax” value amounted to 511.0 ng/mL and the “MRT” value came out at 31.1 h. For the same substance, the “Tmax” value was found to be 25.0 h, the “Vz” value is 0.4526 L/kg, the “Terminal HL” value amounted to 13.9 h and the “In vivo PK Term HL” value was 13.9 h. For the same substance, the “Mean serum Conc.” value (1 hr) was determined as 36.4 ng/mL. Besides, for the setting “4 hr”, the “Mean serum Conc.” value was 228.5 ng/mL. Moreover, the “Mean serum Conc.” value (8 hr) was 380.9 ng/mL. For the same substance, under “12 hr”, the “Mean serum Conc.” value is 486.6 ng/mL. Besides, the “Mean serum Conc.” value (25 hr) was 511.0 ng/mL. For the same substance, where the note is “34 hr”, the “Mean serum Conc.” value is 404.8 ng/mL. Further, the “Mean serum Conc.” value (50 hr) stood at 184.2 ng/mL. In addition, for the setting “58 hr”, the “Mean serum Conc.” value turned out to be 122.3 ng/mL. For the setting “73 hr”, the “Mean serum Conc.” value worked out at 48.8 ng/mL. The “Mean serum Conc.” value (80 hr) was 37.1 ng/mL. Where the note is “pre-dose (PD)”, the “Mean serum Conc.” value was “BQL”.
